Assay results from patent publication US7002001.

Assays:
[1] = biological target: C3 mutant with cys(C) at position 1303 and glutamine at 1320
[2] = biological target: C3 mutant with gly(G) at position 1303 and glutamine at 1320
[3] = biological target: C3 mutant with trp(W) at position 1303 and glutamine at 1320
[4] = biological target: C3 mutant with tyr(Y) at position 1303 and glutamine at 1320
[5] = biological target: E1Q2 mutant C3 (Arg1303 changed to Glu, plus Arg1320 changed to Gln)
[6] = biological target: mutant C3M-26 (Arg1303->Gln, Arg1320->Gln)
Sequence of mutant C3M-26 (Arg1303->Gln, Arg1320->Gln) (chain, as listed by the source, stated change not applied, chain 1 of 2): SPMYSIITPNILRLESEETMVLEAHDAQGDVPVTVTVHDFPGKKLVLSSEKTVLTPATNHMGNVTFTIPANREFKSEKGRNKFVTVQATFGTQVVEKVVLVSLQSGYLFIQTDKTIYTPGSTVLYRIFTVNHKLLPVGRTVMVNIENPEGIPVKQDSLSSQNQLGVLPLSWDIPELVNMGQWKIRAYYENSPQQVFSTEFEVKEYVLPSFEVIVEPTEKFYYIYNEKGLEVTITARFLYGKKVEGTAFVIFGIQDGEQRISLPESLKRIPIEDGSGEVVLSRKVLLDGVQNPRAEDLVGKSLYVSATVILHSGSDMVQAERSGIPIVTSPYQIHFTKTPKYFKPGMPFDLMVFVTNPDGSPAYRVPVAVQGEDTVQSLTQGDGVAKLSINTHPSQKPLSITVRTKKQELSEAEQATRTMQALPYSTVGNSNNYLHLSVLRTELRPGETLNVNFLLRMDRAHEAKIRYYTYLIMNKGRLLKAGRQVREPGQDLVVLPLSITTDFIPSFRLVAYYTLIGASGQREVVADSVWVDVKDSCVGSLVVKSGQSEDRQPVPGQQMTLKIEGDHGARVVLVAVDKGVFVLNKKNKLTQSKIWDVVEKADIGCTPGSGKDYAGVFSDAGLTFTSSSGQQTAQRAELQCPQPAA
Sequence of mutant C3M-26 (Arg1303->Gln, Arg1320->Gln) (chain, as listed by the source, stated change not applied, chain 2 of 2): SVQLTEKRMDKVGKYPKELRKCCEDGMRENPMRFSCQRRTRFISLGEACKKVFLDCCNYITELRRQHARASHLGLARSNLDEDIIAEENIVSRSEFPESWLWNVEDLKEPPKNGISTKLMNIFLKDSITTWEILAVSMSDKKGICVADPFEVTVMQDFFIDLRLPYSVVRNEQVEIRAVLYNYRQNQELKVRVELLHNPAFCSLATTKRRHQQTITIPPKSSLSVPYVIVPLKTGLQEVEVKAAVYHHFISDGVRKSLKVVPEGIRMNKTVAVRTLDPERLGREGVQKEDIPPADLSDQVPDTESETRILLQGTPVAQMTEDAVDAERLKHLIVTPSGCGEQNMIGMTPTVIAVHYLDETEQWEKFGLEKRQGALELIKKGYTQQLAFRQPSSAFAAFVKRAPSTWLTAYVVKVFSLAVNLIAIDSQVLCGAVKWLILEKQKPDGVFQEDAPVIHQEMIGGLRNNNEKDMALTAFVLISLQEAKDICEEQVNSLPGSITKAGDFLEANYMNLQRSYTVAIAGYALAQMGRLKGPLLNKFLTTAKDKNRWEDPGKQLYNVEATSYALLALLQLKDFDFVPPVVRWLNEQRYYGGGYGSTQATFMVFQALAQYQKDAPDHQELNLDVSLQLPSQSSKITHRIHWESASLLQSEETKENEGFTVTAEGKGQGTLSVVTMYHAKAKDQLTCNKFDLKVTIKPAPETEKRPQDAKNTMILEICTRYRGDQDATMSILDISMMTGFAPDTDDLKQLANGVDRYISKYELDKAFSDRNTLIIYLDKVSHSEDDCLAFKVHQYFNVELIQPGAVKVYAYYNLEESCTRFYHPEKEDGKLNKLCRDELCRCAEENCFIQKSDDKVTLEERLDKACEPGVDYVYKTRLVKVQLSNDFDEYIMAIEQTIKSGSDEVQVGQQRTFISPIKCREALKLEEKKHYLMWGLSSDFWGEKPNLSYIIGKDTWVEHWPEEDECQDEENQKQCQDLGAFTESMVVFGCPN

[7] = biological target: mutant C3M-51 (Arg1320->Gln)
Sequence of mutant C3M-51 (Arg1320->Gln) (chain, as listed by the source, stated change not applied, chain 1 of 2): as the sequence (chain, as listed by the source, stated change not applied, chain 1 of 2) above
Sequence of mutant C3M-51 (Arg1320->Gln) (chain, as listed by the source, stated change not applied, chain 2 of 2): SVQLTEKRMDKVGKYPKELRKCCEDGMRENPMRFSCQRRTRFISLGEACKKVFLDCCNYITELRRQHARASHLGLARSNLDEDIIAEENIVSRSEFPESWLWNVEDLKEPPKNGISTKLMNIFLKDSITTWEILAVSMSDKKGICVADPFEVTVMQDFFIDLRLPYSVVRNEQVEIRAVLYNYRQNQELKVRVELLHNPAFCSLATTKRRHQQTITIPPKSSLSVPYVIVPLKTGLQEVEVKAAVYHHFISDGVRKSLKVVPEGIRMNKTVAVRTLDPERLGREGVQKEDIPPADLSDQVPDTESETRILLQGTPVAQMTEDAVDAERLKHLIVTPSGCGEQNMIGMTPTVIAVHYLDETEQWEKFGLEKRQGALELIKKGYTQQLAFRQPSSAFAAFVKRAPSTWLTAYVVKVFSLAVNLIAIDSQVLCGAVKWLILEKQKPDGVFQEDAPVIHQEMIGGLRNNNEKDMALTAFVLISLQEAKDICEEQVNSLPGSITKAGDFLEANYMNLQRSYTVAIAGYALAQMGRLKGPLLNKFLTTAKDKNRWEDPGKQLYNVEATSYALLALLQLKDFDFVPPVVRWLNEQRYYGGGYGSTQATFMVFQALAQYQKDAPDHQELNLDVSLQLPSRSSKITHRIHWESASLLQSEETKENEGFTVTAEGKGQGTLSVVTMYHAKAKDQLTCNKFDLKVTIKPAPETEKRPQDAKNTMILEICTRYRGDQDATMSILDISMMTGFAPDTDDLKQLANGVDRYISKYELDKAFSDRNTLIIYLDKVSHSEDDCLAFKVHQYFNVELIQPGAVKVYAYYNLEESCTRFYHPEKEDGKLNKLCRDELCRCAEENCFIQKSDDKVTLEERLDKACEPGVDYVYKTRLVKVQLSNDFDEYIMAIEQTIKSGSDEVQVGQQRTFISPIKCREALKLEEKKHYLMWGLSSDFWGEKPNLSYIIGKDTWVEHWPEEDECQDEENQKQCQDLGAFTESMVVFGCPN

[8] = biological target: mutant C3M-I23 (Arg1303->Gln)
[9] = biological target: wild-type human C3 (expressed from the PC3 coding sequence)

Sequence of C3 mutant with gly(G) at position 1303 and glutamine at 1320 (chain, as listed by the source mutant, chain 1 of 2): as the sequence (chain, as listed by the source, stated change not applied, chain 1 of 2) above
Sequence of C3 mutant with gly(G) at position 1303 and glutamine at 1320 (chain, as listed by the source mutant, chain 2 of 2): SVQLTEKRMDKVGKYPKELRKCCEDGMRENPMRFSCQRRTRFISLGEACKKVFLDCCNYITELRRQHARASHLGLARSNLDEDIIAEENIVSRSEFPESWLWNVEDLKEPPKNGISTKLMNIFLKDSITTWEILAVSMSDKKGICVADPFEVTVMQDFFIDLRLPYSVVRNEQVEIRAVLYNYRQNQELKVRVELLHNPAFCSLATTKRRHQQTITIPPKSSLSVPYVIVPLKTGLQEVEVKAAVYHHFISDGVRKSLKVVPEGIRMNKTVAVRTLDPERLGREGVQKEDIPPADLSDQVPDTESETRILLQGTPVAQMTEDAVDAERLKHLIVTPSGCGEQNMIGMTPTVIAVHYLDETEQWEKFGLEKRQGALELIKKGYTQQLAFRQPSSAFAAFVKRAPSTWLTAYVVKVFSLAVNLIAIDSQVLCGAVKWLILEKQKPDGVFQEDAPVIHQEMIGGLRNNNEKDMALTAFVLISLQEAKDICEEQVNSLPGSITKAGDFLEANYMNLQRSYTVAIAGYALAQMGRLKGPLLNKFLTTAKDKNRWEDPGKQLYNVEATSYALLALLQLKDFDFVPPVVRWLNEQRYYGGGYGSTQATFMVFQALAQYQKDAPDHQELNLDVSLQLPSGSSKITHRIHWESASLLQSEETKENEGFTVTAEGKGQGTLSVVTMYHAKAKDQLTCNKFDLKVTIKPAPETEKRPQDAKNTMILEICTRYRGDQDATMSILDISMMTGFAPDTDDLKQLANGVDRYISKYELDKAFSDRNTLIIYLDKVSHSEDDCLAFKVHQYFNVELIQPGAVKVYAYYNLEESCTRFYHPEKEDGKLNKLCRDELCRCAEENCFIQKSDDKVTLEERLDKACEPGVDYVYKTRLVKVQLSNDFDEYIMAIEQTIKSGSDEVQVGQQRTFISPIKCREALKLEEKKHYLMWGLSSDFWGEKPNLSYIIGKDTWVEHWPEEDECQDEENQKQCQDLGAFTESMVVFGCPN

B1: factor I (protein)
chain: KVTYTSQEDLVEKKCLAKKYTHLSCDKVFCQPWQRCIEGTCVCKLPYQCPKNGTAVCATNRRSFPTYCQQKSLECLHPGTKFLNNGTCTAEGKFSVSLKHGNTDSEGIVEVKLVDQDKTMFICKSSWSMREANVACLDLGFQQGADTQRRFKLSDLSINSTECLHVHCRGLETSLAECTFTKRRTMGYQDFADVVCYTQKADSPMDDFFQCVNGKYISQMKACDGINDCGDQSDELCCKACQGKGFHCKSGVCIPSQYQCNGEVDCITGEDEVGCAGFASVTQEETEILTADMDAERRRIKSLLPKLSCGVKNRMHIRRKRIVGGKRAQLGDLPWQVAIKDASGITCGGIYIGGCWILTAAHCLRASKTHRYQIWTTVVDWIHPDLKRIVIEYVDRIIFHENYNAGTYQNDIALIEMKKDGNKKDCELPRSIPACVPWSPYLFQPNDTCIVSGWGREKDNERVFSLQWGEVKLISNCSKFYGNRFYEKEMECAGTYDGSIDACKGDSGGPLVCMDANNVTYVWGVVSWGENCGKPEFPGVYTKVANYFDWISYHVGRPFISQYNV
[1]
  Factor I-mediated cleavage at position 1303 (35S label, SDS-PAGE, autoradiography): cleavage occurs in the order: arg(R)>tyr(Y)>cys(C) and trp(W)>gln(Q)>gly(G) and glu(E)
[2]
  Factor I-mediated cleavage at position 1303 (35S label, SDS-PAGE, autoradiography): cleavage occurs in the order: arg(R)>tyr(Y)>cys(C) and trp(W)>gln(Q)>gly(G) and glu(E)
[3]
  Factor I-mediated cleavage at position 1303 (35S label, SDS-PAGE, autoradiography): cleavage occurs in the order: arg(R)>tyr(Y)>cys(C) and trp(W)>gln(Q)>gly(G) and glu(E)
[4]
  Factor I-mediated cleavage at position 1303 (35S label, SDS-PAGE, autoradiography): cleavage occurs in the order: arg(R)>tyr(Y)>cys(C) and trp(W)>gln(Q)>gly(G) and glu(E)
[5]
  Factor I-mediated cleavage at position 1303 (35S label, SDS-PAGE, autoradiography): cleavage occurs in the order: arg(R)>tyr(Y)>cys(C) and trp(W)>gln(Q)>gly(G) and glu(E)
[6]
  Factor I-mediated cleavage at position 1303 (35S label, SDS-PAGE, autoradiography): cleavage occurs in the order: arg(R)>tyr(Y)>cys(C) and trp(W)>gln(Q)>gly(G) and glu(E)
  cleavage of the C3b-like product by factors H and I (immunoprecipitation, western blot): It was also very resistant to the additional factors H and I (3-D) in comparison with the unmutated C3 (1) and other mutants (2 and 4)
[7]
  Factor I-mediated cleavage at position 1303 (35S label, SDS-PAGE, autoradiography): cleavage occurs in the order: arg(R)>tyr(Y)>cys(C) and trp(W)>gln(Q)>gly(G) and glu(E)
  cleavage of the C3b-like product by factors H and I (immunoprecipitation, western blot): the absence of a 43 kDa band indicates that it is not cleaved at the mutated Gln1320
[8]
  cleavage of the C3b-like product by factors H and I (immunoprecipitation, western blot): no 68 kDa band was present, showing that this mutant is resistant to cleavage at the mutated Gln1303
[9]
  cleavage of the C3b product by factors H and I (immunoprecipitation, western blot): the C3b product is further cleaved by endogenous enzymes in 1-B or added factors H and I in 1-D. The 43 kDa band indicates cleavage at Arg1320, and the 68 kDa band (visible in longer exposures) indicates cleavage at Arg1303
